B1: Peripheral plasma membrane protein CASK, residues 488 to 569; numbered along this chain, O14936 (parent)
chain: VRLVQFQKNTDEPMGITLKMNELNHCIVARIMHGGMIHRQGTLHVGDEIREINGISVANQTVEQLQKMLREMRGSITFKIVP
B2: Far upstream element-binding protein 1, residues 184 to 257; numbered along this chain, Q96AE4 (parent)
chain: GNAVQEIMIPASKAGLVIGKGGETIKQLQERAGVKMVMIQDGPQNTGADKPLRITGDPYKVQQAKEMVLELIRD

Variants of: B1
Experiment: abundance fitness (aPCA) (normalised: wild type 0, dead -1); higher = more abundant; growth selection in yeast, the domain comes from the species named
Conditions: Homo sapiens

Abundance fitness of substitutions, site by site:
S75: T 0.023; A 0.04; G 0.001; Q 0.019; Y -0.116; L 0.034; D 0.033; W -0.04; C -0.011; I -0.116; F -0.037; P -0.005; N -0.023; R -0.011; M -0.081; E -0.029; V 0.011; H -0.047; K 0.005
R73: K 0.007; H -0.044; F -0.124; I -0.04; D -0.002; T -0.003; M -0.077; E -0.02; P -0.357; V -0.038; W -0.117; Y -0.157; N 0.038; L -0.113; C -0.011; S 0.025; A -0.082; G -0.022; Q -0.006
M72: D -0.182; R -0.14; F 0.039; G -0.077; P -0.244; Y -0.055; S 0.007; Q -0.05; W -0.047; H -0.009; E -0.085; A 0.022; K -0.072; T -0.022; N -0.114; I 0.036; C 0.005; V -0.008
P82: T -0.042; W -0.359; I -0.237; K -0.143; S -0.021; Q 0.02; M -0.204; L -0.214; D -0.039; H -0.151; C -0.072; G -0.083; N -0.048; A -0.016; V -0.089; R -0.063; E -0.047; Y -0.45
F78: Y -0.524; L -0.007; I -0.045; K -0.964; C -0.233; W -0.484; T -0.677; N -0.922; Q -1.22; V -0.198; P -0.998; M 0.052; R -0.812; A -0.473; G -0.886; D -1.22; S -0.839; H -0.95
G74: M -0.806; I -1.13; K -0.399; N -0.243; H -0.355; S -0.381; C -0.5; L -0.842; R -0.467; F -0.51; V -0.716; Y -0.521; T -0.4; P -0.524; D -0.131
E71: C -0.022; H -0.002; N -0.044; R -0.008; T -0.036; A -0.03; M -0.053; S -0.013; Q -0.051; Y 0.017; F 0.013; I -0.036; G 0.006; V -0.034; L -0.074; D 0.007; K 0.004
T77: F -0.019; Y -0.112; W -0.014; Q -0.04; M -0.309; K -0.041; N -0.096; I -0.026; G -0.248; A -0.028; D -0.061; L -0.064; C -0.058; E -0.034; V -0.103; R -0.088; S -0.002; H -0.194
V81: P -0.658; F -0.02; W -0.102; A -0.054; L 0.005; E -0.104; G -0.106; Y -0.035; M -0.05; T -0.075; Q -0.001; I -0.016; C -0.036; H -0.073; S -0.044; N -0.118
I80: C -0.074; W -0.383; Q -0.894; N -0.836; A -0.468; E -0.883; K -0.802; R -0.795; V 0.012; P -0.921; H -0.623; T -0.142; M -0.169; S -0.424; F -0.098; D -1.32; L -0.113; Y -0.188; G -0.408
K79: S 0.014; Q -0.016; W -0.572; C -0.053; G -0.044; L -0.09; D -0.27; N -0.091; Y -0.415; F -0.457; M -0.133; R -0.061; H -0.006; A 0.071; P -1.14; E -0.113; T -0.06; V -0.213; I -0.406
I76: Y -0.339; F -0.173; H -0.544; N -0.186; R -1.06; G -0.157; S -0.448; K -1.11; E -1.04; V -0.01; C -0.028; P -0.647; D -0.818; M -0.082; T -0.269; L -0.112; A -0.308; W -0.236

Variants of: B2
Experiment: as above
Conditions: Homo sapiens

Abundance fitness: each site, then its substitutions
V4: K 0.027; G -0.146; F 0.112; I 0.097; C -0.069; M 0.11; Q 0.009; E 0.051; A -0.259; Y -0.013; H 0.031; T 0.029; N 0.073; R -0.053; W -0.105; L -0.065; D -0.063; S -0.18; P -0.56
A3: P 0.109; G -0.059; Y 0.158; M 0.256; H -0.044; R 0.17; I 0.255; T 0.235; F 0.165; V 0.011; E 0.039; Q 0.133; N 0.057; S 0.196; K 0.181; L 0.172; W 0.116
N2: M 0.201; A 0.043; K 0.155; R 0.032; C 0.052; D -0.224; Q 0.095; H -0.311; T 0.154; S 0.128; W -0.028; F 0.043; Y -0.124; I 0.168; L 0.09; V 0.121; E 0.176; P -0.028
E6: L -0.187; R -0.145; N -0.146; G -0.358; Q 0.024; M -0.078; W -0.082; T -0.014; V -0.028; I -0.101; H -0.086; A -0.12; C -0.366; P -0.809; Y -0.232; F -0.217; S -0.185; D -0.1
Q5: N -0.083; Y -0.003; P -0.726; T 0.013; I 0.014; F -0.063; L -0.029; M 0.056; A -0.007; R 0.013; H -0.108; G -0.036; C -0.006; V 0.04; D 0.021; E 0.128; K 0.016
I7: D -1.02; A -0.674; Q -0.559; G -0.885; P -1.14; T -0.564; W -0.651; C -0.394; V -0.045; N -1.09; F -0.229; E -0.646; L -0.026; R -0.861
G1: V 0.038; I 0.193; K -0.044; N -0.073; F -0.027; D -0.067; W -0.502; C -0.127; R -0.176; Y -0.074; E -0.061; P -0.212; Q -0.26; A -0.075; M 0.173; L -0.042; S -0.14
